Several values for one entry are separate records, joined by “and”; a condition that tells them apart may be missing. Equal values may be shown once.
Experiments:
muIL-27 = target: T1, muIL-27 (Mus musculus, UniProt O35228+Q8K3I6); assay: Phospho-STAT3 (BIO-PLEX) neutralization of IL-27 by soluble receptors, total human PBMCs; assay type: cell-based; details: ligand muIL-27 at EC90 (2 nM)
T1 construct: purchased R&D Systems
T1 sequence (Q8K3I6 29-234): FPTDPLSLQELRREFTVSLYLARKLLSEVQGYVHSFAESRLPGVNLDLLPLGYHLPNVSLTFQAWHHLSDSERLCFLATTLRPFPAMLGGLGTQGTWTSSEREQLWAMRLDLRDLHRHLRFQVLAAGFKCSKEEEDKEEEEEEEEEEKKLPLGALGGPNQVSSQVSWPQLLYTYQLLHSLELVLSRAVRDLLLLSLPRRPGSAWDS
T1 sequence (O35228 19-228): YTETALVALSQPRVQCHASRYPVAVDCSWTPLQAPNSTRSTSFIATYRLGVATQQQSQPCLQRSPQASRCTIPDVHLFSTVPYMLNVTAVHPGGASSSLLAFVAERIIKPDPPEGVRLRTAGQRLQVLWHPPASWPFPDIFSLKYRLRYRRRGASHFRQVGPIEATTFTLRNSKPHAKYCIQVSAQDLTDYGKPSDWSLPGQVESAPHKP
Excerpt: Whole mouse spleens were harvested from C57 B1/6 mice and washed two times with 1×PBS before being plated out at 2×10^5 cells/well in assay media (RPMI 1640 plus 10% fetal bovine serum) in 96-well, round-bottom tissue culture plates. Total human PBMC (peripheral blood mononuclear cells) were thawed from a frozen vial collected from a leukapherisis donation and washed two times with 1×PBS before being plated out at 10^6 cells/well in assay media in 96-well, round-bottom tissue culture plates. […] Following pre-incubation, treatments were added to the plates containing the cells and incubated together at 37° C. for 15 minutes.
Following incubation, cells were washed with ice-cold wash buffer (BIO-PLEX Cell Lysis Kit, BIO-RAD Laboratories, Hercules, Calif.) and put on ice to stop the reaction according to manufacturer's instructions. […]
Capture beads (BIO-PLEX Phospho-Stat3 Assay, BIO-RAD Laboratories) were combined with 50 μL of 1:1 diluted lysates and added to a 96-well filter plate according to manufacture's instructions (BIO-PLEX Phosphoprotein Detection Kit, BIO-RAD Laboratories). […] After the final wash, beads were resuspended in 125 μL/well of bead suspension buffer, shaken for 30 seconds, and read on an array reader (BIO-PLEX, BIO-RAD Laboratories) according to the manufacture's instructions. Data were analyzed using analytical software (BIO-PLEX MANAGER 3.0, BIO-RAD Laboratories). […]

single-chain mouse IL-27 = target: T2, single-chain mouse IL-27 (Mus musculus, UniProt O35228+Q8K3I6); assay: IL-27 inhibition of IL-2 production neutralized by IL-27RA Fc (third set of experiments); assay type: cell-based; details: + IL-27 (10 ng/ml)
T2 sequence (O35228+Q8K3I6 with tags, fused parts or gaps): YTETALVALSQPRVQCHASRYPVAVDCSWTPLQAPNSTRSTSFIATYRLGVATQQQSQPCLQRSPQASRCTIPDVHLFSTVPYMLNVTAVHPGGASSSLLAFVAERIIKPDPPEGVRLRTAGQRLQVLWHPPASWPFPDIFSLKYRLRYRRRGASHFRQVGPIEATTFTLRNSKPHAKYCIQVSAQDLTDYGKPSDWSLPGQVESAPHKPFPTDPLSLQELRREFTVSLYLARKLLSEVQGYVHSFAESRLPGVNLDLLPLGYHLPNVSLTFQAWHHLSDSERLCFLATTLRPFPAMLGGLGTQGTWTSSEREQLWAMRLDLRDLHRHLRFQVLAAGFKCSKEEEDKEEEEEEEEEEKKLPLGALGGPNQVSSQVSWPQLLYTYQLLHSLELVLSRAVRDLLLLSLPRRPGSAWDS
Method: Naïve mouse CD4 T-cells were isolated as described above. For testing of the neutralizing mAbs, the naïve CD4 T cells were preincubated for 30 minutes at 37 degrees C. with graded concentrations (60, 30, 15, 7.5, 3.75, 1.875.micro.g/ml) of either neutralizing rat anti-mouse IL27RA mAb (each mAb tested separately), rat IgG1 isotype control mAb, rat IgG2a isotype control mAb, or no mAb. […] The CD4 T cells (4×10^5/well) were then transferred to anti-CD3 coated tissue culture plates. Single-chain mouse IL-27 (10 ng/ml) was then added to the plates. Duplicate plates were set up for all experimental conditions. The plates were then cultured at 37 degrees for up to 72 hours.
For testing of the soluble receptor, single-chain mouse IL-27 (10 ng/ml) was preincubated for 30 minutes at 37 degrees C. with either IL27RAm(mFc1) (10.0 and 5.0.micro.g/ml), IL27RA-Fc5, mouse Fc1 protein (10.0 and 5.0.micro.g/ml), human Fc5 protein (10.0 and 5.0.micro.g/ml), or no recombinant protein in wells of the anti-CD3 coated plates. 4×10^5 CD4^+ CD62L high cells were added to the wells. Duplicate plates were set up for all experimental conditions. The plates were then cultured at 37 degrees for up to 72 hours. Cell supernatants were collected from one set of plates at 48 hours and from the duplicate set of plates at 72 hours. The supernatants were stored frozen at −80° C.

IC50 (muIL-27): 4.83 nM
IL-2 concentration (single-chain mouse IL-27; 48 hr, protein conc. 5 (μg/ml; Fc controls in molar equiv.)): 4021.15 pg/mL
IL-2 concentration (single-chain mouse IL-27; 48 hr, protein conc. 10 (μg/ml; Fc controls in molar equiv.), listed as mIL-27RA): 5215.59 pg/mL and 4922.26 pg/mL
IL-2 concentration (single-chain mouse IL-27; 72 hr, protein conc. 5 (μg/ml; Fc controls in molar equiv.)): 5744.95 pg/mL
IL-2 concentration (single-chain mouse IL-27; 72 hr, protein conc. 10 (μg/ml; Fc controls in molar equiv.), listed as mIL-27RA): 6704.62 pg/mL and 12186.7 pg/mL
B1: IL-27RAm(mFc1): Extracellular domain of mouse IL27RA fused to a wild type BALB/c mouse gamma2a constant region Fc tag (protein)
chain: MNRLERVALARLETPRLEGLLELELESLEMSLELELEGTRPRHGSPRGPRLEQCYSVGPRLEGILENCSWGLPRLEGDLEGLTPRPRVLEYHQSQKYHPRNRVWGLVKVPRSKQSWVTIPRRGLQFTMADKLELEIWGTQKGRPRLEWSSVSVASNLEGLTQMKPRDTPRQIFSQVASPISGLGLATLEGLATVQWAPRPRVWPRPRQKALETCQFRYKGLCQAGLAWTRLEGLPRQLEKTDGLETPRVGLMQNLEGLPRGTCYQVSGRCQVGLNGYPRWGGLWSSPRLESFQTPRFLEDPRGLDVWVSGTVCGLTSGKRAALELEVWKDPRRPRCVQVTYTVWFGAGDITTTQGLGLVPRCCKSPRVPRAWMGLWAVVSPRGNSTSWVPRPRTNLESLEVCLEAPRGLSAPRCDVGVSSADGSPRGIKVTWKQGTARGSPRLEGLYVVASPWAQDGDSLEDKLENWTRLEPRPRGNLESTLELEPRGGLFKGGVPRYRITVTAVYSGGLEAAAPRSVWGFRGLGLLEVPRLEAGPRAVWRLEPRDDPRPRGTPRVVALAWGGLVPRRHQLERGQATHYTFCIQSRGLESTVCRNVSSQTQTATLEPRNLEHSGSFKLEWVTVSTVALAGQGPRPRGPRDLESLEHLEPRDNRIRWKALEPRWFLESLEWGLELELEMGCGLESLEASTRCLEQARCLEHWRHKLELEPRQWIWGLRVPRDPRANSNSGQPRYIKGLVSLEPRQPRPRKDGPRILEGLVGLGLVGLLEQPRVVGLSPRKASAPRIYSGYGLKHFLEPRTPRGLGLLEGLELEV
modifications: left off: a dimerising Fc or GST
notes: Extracellular domain of mouse IL27RA fused to a wild type BALB/c mouse gamma2a constant region Fc tag

Source: US20100093076A1, “SOLUBLE IL-27 RECEPTOR” (priority 2006, published 2010)
